Laboratory results: publication PMC10397247

Assays:
[1] = biological target: T1, 4H1406-bH; assay: two-hybrid library CCNG1;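 also: natural log of median RNA to DNA barcode read ratio; higher means stronger binding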
T1 chain: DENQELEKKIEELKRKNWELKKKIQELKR

[2] = biological target: T2, 4H1193-bH; assay: two-hybrid library CCNG1;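 also: natural log of median RNA to DNA barcode read ratio; higher means stronger binding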
T2 chain: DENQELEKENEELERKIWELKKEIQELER

[3] = biological target: T3, 4H2745-bH; assay: two-hybrid library CCNG1;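 also: natural log of median RNA to DNA barcode read ratio; higher means stronger binding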
T3 chain: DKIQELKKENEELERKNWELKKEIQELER

[4] = biological target: T4, 4H3592-bH; assay: two-hybrid library CCNG1;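 also: natural log of median RNA to DNA barcode read ratio; higher means stronger binding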
T4 chain: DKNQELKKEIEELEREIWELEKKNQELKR

[5] = biological target: T5, 4H3907-bH; assay: two-hybrid library CCNG1;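 also: natural log of median RNA to DNA barcode read ratio; higher means stronger binding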
T5 chain: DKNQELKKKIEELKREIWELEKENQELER

[6] = biological target: T6, 4H1072-bH; assay: two-hybrid library CCNG1;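 also: natural log of median RNA to DNA barcode read ratio; higher means stronger binding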
T6 chain: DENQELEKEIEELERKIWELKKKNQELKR

[7] = biological target: T7, 4H3601-bH; assay: two-hybrid library CCNG1
T7 chain: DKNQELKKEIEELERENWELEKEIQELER

[8] = biological target: T8, 4H363-bH; assay: two-hybrid library CCNG1
T8 chain: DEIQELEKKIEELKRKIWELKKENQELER

[9] = biological target: T9, 4H4038-bH; assay: two-hybrid library CCNG1
T9 chain: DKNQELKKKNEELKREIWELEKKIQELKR

[10] = biological target: T10, 4H2619-bH; assay: two-hybrid library CCNG1
T10 chain: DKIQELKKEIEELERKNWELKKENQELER

[11] = biological target: T11, 4H3297-bN; assay: two-hybrid library CCNG1
T11 chain: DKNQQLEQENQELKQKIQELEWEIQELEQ

[12] = biological target: T12, 4H470-bH; assay: two-hybrid library CCNG1
T12 chain: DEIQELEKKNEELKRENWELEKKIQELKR

[13] = biological target: T13, 4H1387-bH; assay: two-hybrid library CCNG1
T13 chain: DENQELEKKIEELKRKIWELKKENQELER

[14] = biological target: T14, 4H344-bH; assay: two-hybrid library CCNG1
T14 chain: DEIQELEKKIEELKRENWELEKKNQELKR

[15] = biological target: T15, 4H1899-bN; assay: two-hybrid library CCNG1
T15 chain: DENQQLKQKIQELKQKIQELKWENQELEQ

[16] = biological target: T16, 4H2568-bH; assay: two-hybrid library CCNG1
T16 chain: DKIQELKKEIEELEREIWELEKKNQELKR

[17] = biological target: T17, 4H3961-bH; assay: two-hybrid library CCNG1
T17 chain: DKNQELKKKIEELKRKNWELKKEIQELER

[18] = biological target: T18, Core_NIIN-es_KEKK; assay: two-hybrid library CCmax; conditions: mean of both orientations
T18 chain: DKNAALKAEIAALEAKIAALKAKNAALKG

[19] = biological target: T19, 4H3974-bH; assay: two-hybrid library CCNG1
T19 chain: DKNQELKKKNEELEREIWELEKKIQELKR

[20] = biological target: T20, 4H570-bH; assay: two-hybrid library CCNG1
T20 chain: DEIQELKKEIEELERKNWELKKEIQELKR

[21] = biological target: T21, 4H3817-bH; assay: two-hybrid library CCNG1
T21 chain: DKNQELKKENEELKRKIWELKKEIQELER

[22] = biological target: T22, 4H3858-bH; assay: two-hybrid library CCNG1
T22 chain: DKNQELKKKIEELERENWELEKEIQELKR

[23] = biological target: T23, 4H3628-bH; assay: two-hybrid library CCNG1
T23 chain: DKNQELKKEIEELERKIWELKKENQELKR

[24] = biological target: T24, 4H1710-bH; assay: two-hybrid library CCNG1
T24 chain: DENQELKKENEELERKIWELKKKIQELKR

[25] = biological target: T25, 4H1338-bH; assay: two-hybrid library CCNG1
T25 chain: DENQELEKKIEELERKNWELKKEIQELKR

[26] = biological target: T26, 4H1544-bH; assay: two-hybrid library CCNG1
T26 chain: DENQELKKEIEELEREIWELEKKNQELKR

[27] = biological target: T27, 4H1985-bH; assay: two-hybrid library CCNG1
T27 chain: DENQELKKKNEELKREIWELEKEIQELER

[28] = biological target: T28, 4H1373-bH; assay: two-hybrid library CCNG1
T28 chain: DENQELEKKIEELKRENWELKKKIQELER

[29] = biological target: T29, 4H1899-bH; assay: two-hybrid library CCNG1
T29 chain: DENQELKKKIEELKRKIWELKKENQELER

[30] = biological target: T30, 4H1449-bH; assay: two-hybrid library CCNG1
T30 chain: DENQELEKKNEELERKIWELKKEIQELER

[31] = biological target: T31, 4H850-bH; assay: two-hybrid library CCNG1
T31 chain: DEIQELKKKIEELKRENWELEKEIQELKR

[32] = biological target: T32, 4H3613-bH; assay: two-hybrid library CCNG1
T32 chain: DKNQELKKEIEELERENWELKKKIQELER

[33] = biological target: T33, 4H1348-bH; assay: two-hybrid library CCNG1
T33 chain: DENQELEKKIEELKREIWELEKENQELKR

[34] = biological target: T34, 4H3632-bN; assay: two-hybrid library CCNG1
T34 chain: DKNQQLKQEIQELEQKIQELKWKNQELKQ

[35] = biological target: T35, 4H2619-bN; assay: two-hybrid library CCNG1
T35 chain: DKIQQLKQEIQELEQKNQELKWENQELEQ

[36] = biological target: T36, 4H342-bN; assay: two-hybrid library CCNG1
T36 chain: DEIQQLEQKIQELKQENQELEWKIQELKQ

[37] = biological target: T37, 4H145-bN; assay: two-hybrid library CCNG1; conditions: mean of both orientations
T37 chain: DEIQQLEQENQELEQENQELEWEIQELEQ

[38] = biological target: T38, 4H2691-bN; assay: two-hybrid library CCNG1
T38 chain: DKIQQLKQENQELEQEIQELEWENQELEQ

[39] = biological target: T39, 4H496-bN; assay: two-hybrid library CCNG1
T39 chain: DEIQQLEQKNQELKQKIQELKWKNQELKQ

[40] = biological target: T40, 4H3070-bN; assay: two-hybrid library CCNG1; conditions: mean of both orientations
T40 chain: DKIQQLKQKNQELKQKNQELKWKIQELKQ

[41] = biological target: T41, O7-bN; assay: two-hybrid library CCNG1
T41 chain: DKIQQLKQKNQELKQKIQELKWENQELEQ

[42] = biological target: T42, O10-bN; assay: two-hybrid library CCNG1; conditions: mean of both orientations
T42 chain: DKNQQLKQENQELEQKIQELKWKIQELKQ

[43] = biological target: T43, O14-bN; assay: two-hybrid library CCNG1
T43 chain: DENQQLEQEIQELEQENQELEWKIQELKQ

[44] = biological target: T44, O12-bN; assay: two-hybrid library CCNG1
T44 chain: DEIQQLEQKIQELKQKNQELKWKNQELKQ

[45] = biological target: T45, O16-bN; assay: two-hybrid library CCNG1
T45 chain: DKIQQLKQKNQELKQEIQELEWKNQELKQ

[46] = biological target: T46, O13-bN; assay: two-hybrid library CCNG1
T46 chain: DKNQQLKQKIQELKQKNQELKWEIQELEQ

[47] = biological target: T47, O4-bN; assay: two-hybrid library CCNG1
T47 chain: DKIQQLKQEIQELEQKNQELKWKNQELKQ

[48] = biological target: T48, O9-bN; assay: two-hybrid library CCNG1; conditions: mean of both orientations
T48 chain: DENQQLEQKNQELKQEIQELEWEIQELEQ

[49] = biological target: T49, O3-bN; assay: two-hybrid library CCNG1
T49 chain: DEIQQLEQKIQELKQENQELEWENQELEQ

[50] = biological target: T50, O2-bN; assay: two-hybrid library CCNG1
T50 chain: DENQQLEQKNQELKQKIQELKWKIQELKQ

[51] = biological target: T51, O8-bN; assay: two-hybrid library CCNG1
T51 chain: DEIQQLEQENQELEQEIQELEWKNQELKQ

[52] = biological target: T52, O5-bN; assay: two-hybrid library CCNG1
T52 chain: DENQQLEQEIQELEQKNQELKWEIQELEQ

[53] = biological target: T53, O15-bN; assay: two-hybrid library CCNG1
T53 chain: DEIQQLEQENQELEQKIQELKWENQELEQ

[54] = biological target: T54, O11-bN; assay: two-hybrid library CCNG1
T54 chain: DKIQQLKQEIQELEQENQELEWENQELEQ

[55] = biological target: T55, O6-bN; assay: two-hybrid library CCNG1
T55 chain: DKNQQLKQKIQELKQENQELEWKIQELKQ

**Q.** For DENQELEKEIEELERKIWELKKKNQELKR [4H1072-bH], which interaction score [1] is on record?
**A.** 0.174

**Q.** What about the interaction score [2] of the same binder?
**A.** 0.426

**Q.** And the interaction score [3]?
**A.** -0.184

**Q.** And the interaction score [4]?
**A.** 2.09

**Q.** What about the interaction score [5] of the same binder?
**A.** 1.52

**Q.** What about the interaction score [6] of the same binder?
**A.** 0.311

**Q.** What about the interaction score [7] of the same binder?
**A.** 0.621

**Q.** And the interaction score [8]?
**A.** 0.487

**Q.** What about the interaction score [9] of the same binder?
**A.** 0.634

**Q.** What about the interaction score [10] of the same binder?
**A.** 1.65

**Q.** What about the interaction score [11] of the same binder?
**A.** 0.827

**Q.** What about the interaction score [12] of the same binder?
**A.** -1.58

**Q.** And the interaction score [13]?
**A.** 1.17

**Q.** And the interaction score [14]?
**A.** 1.31

**Q.** And the interaction score [15]?
**A.** 1.84

**Q.** And the interaction score [16]?
**A.** -0.817

**Q.** What about the interaction score [17] of the same binder?
**A.** 0.132

**Q.** Which interaction score [18] does the source give for DENAALEAKIAALKAEIAALEAENAALEG [Core_NIIN-es_EKEE] here?
**A.** 1.84

**Q.** DENQELEKKIEELERKNWELKKEIQELKR [4H1338-bH] was tested. Which interaction score [19] did it give?
**A.** 0.694

**Q.** What about the interaction score [20] of the same binder?
**A.** -0.436

**Q.** What about the interaction score [21] of the same binder?
**A.** -0.423

**Q.** What about the interaction score [22] of the same binder?
**A.** 1.35

**Q.** And the interaction score [23]?
**A.** 0.15

**Q.** What about the interaction score [24] of the same binder?
**A.** -0.178

**Q.** And the interaction score [25]?
**A.** 0.937

**Q.** What about the interaction score [26] of the same binder?
**A.** 0.712

**Q.** What about the interaction score [27] of the same binder?
**A.** 0.0593

**Q.** And the interaction score [28]?
**A.** 0.156

**Q.** And the interaction score [29]?
**A.** -0.277

**Q.** What about the interaction score [30] of the same binder?
**A.** -0.182

**Q.** What about the interaction score [31] of the same binder?
**A.** 1.44

**Q.** What about the interaction score [32] of the same binder?
**A.** -0.0861

**Q.** What about the interaction score [33] of the same binder?
**A.** 1.22

**Q.** Which results are given for DEIQQLEQENQELEQENQELEWEIQELEQ [4H145-bN]?
**A.** interaction score [34]: -1.49; interaction score [35]: -0.87; interaction score [36]: -2.65; interaction score [37]: -0.563; interaction score [38]: -1.25; interaction score [39]: -0.916; interaction score [40]: 2.01

**Q.** DKNQQLKQENQELEQKIQELKWKIQELKQ [O10-bN] was tested. Which interaction score [41] did it give?
**A.** 0.28

**Q.** And the interaction score [42]?
**A.** -0.625

**Q.** And the interaction score [43]?
**A.** -1.59

**Q.** What about the interaction score [44] of the same binder?
**A.** -1.87

**Q.** And the interaction score [45]?
**A.** -0.104

**Q.** What about the interaction score [46] of the same binder?
**A.** -0.398

**Q.** What about the interaction score [47] of the same binder?
**A.** -0.783

**Q.** And the interaction score [48]?
**A.** 1.38

**Q.** And the interaction score [49]?
**A.** 0.129

**Q.** And the interaction score [50]?
**A.** 0.523

**Q.** What about the interaction score [51] of the same binder?
**A.** -0.514

**Q.** What about the interaction score [52] of the same binder?
**A.** 0.186

**Q.** And the interaction score [53]?
**A.** 0.569

**Q.** And the interaction score [54]?
**A.** 0.648

**Q.** What about the interaction score [55] of the same binder?
**A.** -0.552
